Here are results for 3 molecules from patent US20250019652A1, “PRODUCTION METHOD FOR SHEET-LIKE RETINAL TISSUE” (RIKEN, priority 2021, published 2025).

Where only a bound is given, the exact number is not on record here.

Assay type in all cases: cell-based, human
For assay [1], the system named is Rx::Venus-sorted cells (KhES-1-derived NR, Day 25). Nature of the assay: Search of factor that maintains property of retina at preparation into sheet again (Example 18). On the set-up: expression intensity of Rx::Venus, concentration dependency: dose or concentration left out as unconfirmed. Particulars: for expression intensity of Rx::Venus: compared with PBS control, 10 days after seeding. On the procedure: (§1) The aggregates (NR) of Day 25 from initiation of the suspension culture prepared in Example 1 were washed with PBS, and a neuronal cell dispersion solution (manufactured by FUJIFILM Wako Pure Chemical Corp.) was added. After incubation at 37° C., they were dispersed into single cells by pipetting, and sorting was carried out with Rx::Venus as an index using Cell sorter ARIAII (Becton, Dickinson and Company).
3 days after seeding, the medium was similarly replaced so as to maintain the concentrations of the low-molecular compounds or the proteins described in Tables 1 and 2. […] 10 days after seeding, fixation was performed in 4% PFA, and the evaluation of the cells after sorting was conducted with Rx::Venus as an index under a fluorescence microscope (BZ-X810 manufactured by Keyence Corp.).

The subject of assay [2] is sorted or unsorted dispersed NR cells (KhES-1 Rx::Venus). Nature of the assay: Aggregate reforming by addition of FGF8 and retinal differentiation, microscopy and FACS (Example 19). On the procedure: as §1, with “24” for “25”, “Company). The cells after sorting were seeded at 2.0 to 5.0×10^4 cells per well to a low adhesive V plate. As controls, a group that was not supplemented with FGF8 (FGF8−) and a group that was not sorted (unsorted) were also established.” for “Company).”
Medium replacement was carried out once every 3 to 4 days. FGF8 was also added at the time of medium replacement. […] RPE cells were partially observed in the sorted FGF8− group.
Further, the aggregates of Culture Day 54 for aggregate reforming (Day 30 after reseeding) were washed with PBS and dispersed into single cells using a neuronal cell dispersion solution (manufactured by FUJIFILM Wako Pure Chemical Corp.). Then, formaldehyde fixation was performed using Fixation buffer (Becton, Dickinson and Company). Thereafter, after washing with Perm/Wash buffer (Becton, Dickinson and Company), staining was performed with anti-CHX10-Alexa Fluor 647 conjugate antibody (Santa Cruz Biotechnology), anti-Sox2-BV421 antibody (BioLegend, Inc.), anti-Ki67-Alexa Fluor 647 conjugate antibody (Becton, Dickinson and Company), and anti-CRX-Alexa Fluor 647 conjugate antibody (Santa Cruz Biotechnology). After washing of the antibodies with Perm/Wash buffer (Becton, Dickinson and Company), measurement was performed using FACSCantoII (BD Biosciences), and analysis was conducted using FlowJo. As a control, neural retinal tissue having the same number of differentiation days that was not reorganized was also established.

For assay [3], the system named is Rx::Venus-sorted NR cells on Transwell (KhES-1-derived). Briefly: Effect of FGF8 at preparation into sheet again, microscopy and FACS (Example 20). On the procedure:
The aggregates (NR) of Day 24 from initiation of the suspension culture prepared in Example 1 were washed with PBS, and a neuronal cell dispersion solution (manufactured by FUJIFILM Wako Pure Chemical Corp.) was added. After incubation at 37° C., they were dispersed into single cells by pipetting, and sorting was carried out with Rx::Venus as an index using Cell sorter ARIAII (Becton, Dickinson and Company). […] As a control, a group that was not supplemented with FGF8 (FGF8−) was also established.
Medium replacement was carried out once every 3 to 4 days. FGF8 was also added at the time of medium replacement. Sheets after a lapse of differentiation for 63 days and 40 days after reseeding were observed under a fluorescence stereo microscope (FIGS. 60 and 61). For FACS analysis, the aggregates of Differentiation Day 64 and Day 41 after reseeding were washed with PBS and dispersed into single cells using a neuronal cell dispersion solution (manufactured by FUJIFILM Wako Pure Chemical Corp.). Then, formaldehyde fixation was performed using Fixation buffer (Becton, Dickinson and Company).
Thereafter, after fixation using Fixation buffer (Becton, Dickinson and Company) and washing with Perm/Wash buffer (Becton, Dickinson and Company), staining was performed with anti-CHX10-Alexa Fluor 647 conjugate antibody (Santa Cruz Biotechnology), anti-Sox2-BV421 conjugate antibody (BioLegend, Inc.), anti-Ki67 antibody (Becton, Dickinson and Company), and anti-CRX-Alexa Fluor 647 conjugate antibody (Santa Cruz Biotechnology). After washing of the antibodies with Perm/Wash buffer (Becton, Dickinson and Company), measurement was performed using FACSCantoII (BD Biosciences), and analysis was conducted using FlowJo. As a control, neural retinal tissue having the same number of differentiation days that was not reorganized was also established (FIG. 62).

Assay [4] relates to CD39-sorted cells of Islet-1 KO KhES-1-derived aggregates (NR). Nature of the assay: Islet-1 KO hESC-retina sheet prepared by sorting with CD39 and addition of FGF8 (Example 26). Particulars: 50 ng/mL FGF8; Day 73. On the procedure:
For aggregates differentiated with 300 nM SAG at the start of suspension culture (at the start of differentiation, dd0), the aggregates (NR) of Day 25 from initiation of the suspension culture were dispersed into single cells and stained at 37° C. for 15 minutes using anti-CD39-APC conjugate antibody (Miltenyi Biotec). Then, sorting was carried out with CD39-APC as an index using Cell sorter ARIAII (Becton, Dickinson and Company). The cells after sorting were seeded at 8.0×10^5 cells per well into 12-well Transwell coated with collagen gel. […] As a control, a group that was not supplemented with FGF8 (FGF8−) was also established.
Medium replacement was carried out once every 3 to 4 days. FGF8 was also added at the time of medium replacement.

In assay [5] the test system is KhES-1 Rx::Venus aggregates. Briefly: Differentiation with or without BMP4: retinal tissue versus brain organoid (Example 23). Particulars: group supplemented with BMP4. The procedure:
Human ES cells (KhES-1 strain (Non Patent Literature 3)) genetically engineered so as to have Rx::Venus reporter gene were cultured under feeder-free conditions in accordance with the method described in “Scientific Reports 4, 3594 (2014)”. As a feeder-free medium, StemFit medium (trade name: AK03N, manufactured by Ajinomoto Co., Inc.) was used, and as a scaffold in place of feeder cells, Laminin511-E8 (trade name, manufactured by Nippi, Inc.) was used. 300 nM SAG was added at the start of suspension culture (at the start of differentiation), and brain organoid was prepared on Day 3 from initiation of the suspension culture without adding BMP4. As a control, a group supplemented with BMP4 was established. Fluorescence microscope observation was performed as to the brain organoid of Day 26 from initiation of the suspension culture prepared in this way (FIG. 70). […] Further, these aggregates were fixed in 4% PFA. Sections were prepared and stained with DAPI and anti-FoxG1 antibody (Takara Bio Inc.), and observation was performed under a fluorescence microscope (BZ-X810 manufactured by Keyence Corp.). […] On the other hand, in the group that was not supplemented with BMP4, FoxG1 positive was confirmed, and it was confirmed that brain organoid was differentiated (FIG. 71).

The mark [6] stands for this setting: sorted group supplemented with FGF8.
Where [7] appears, read: versus neural retinal tissue not reorganized.

B1: FGF8: fibroblast growth factor, FGF signaling pathway agonist (protein, UniProt P55075 23-233, looked up)
Fibroblast growth factor 8: QEGPGRGPALGRELASLFRAGREPQGVSQQHVREQSLVTDQLSRRLIRTYQLYSRTSGKHVQVLANKRINAMAEDGDPFAKLIVETDTFGSRVRVRGAETGLYICMNKKGKLIAKSNGKGKDCVFTEIVLENNYTALQNAKYEGWYMAFTRKGRPRKGSKTRQHQREVHFMKRLPRGHHTTEQSLRFEFLNYPPFTRSLRGSQRTWAPEPR
B1: the “expression intensity of Rx::Venus, concentration dependency” value in assay [1] (FGF8) is on record as “the highest expression intensity of Rx::Venus”. Moreover, the “expression intensity of Rx::Venus” value in assay [1] is recorded as “high expression intensity of Rx::Venus”. Moreover, in assay [2] (setting [6]), the “percentage of Chx10-positive and Sox2-positive neural retinal progenitor cells” value is given as “high”; the “percentage of Crx-positive photoreceptor progenitor cells” value is listed as “tended to be low”. Also, in assay [2] (sorted, FGF8+, Day 10 after reseeding), the “RPE cells or Rx::Venus-negative masses” value is listed as “RPE cells or Rx::Venus-negative masses were not observed”. For the same molecule, in assay [2] (unsorted group supplemented with FGF8, Day 30 after reseeding), the “Rx::Venus positive rate (FACS)” value was “the Rx::Venus positive rate tended to be high”. The “Rx::Venus-negative cell masses or RPE cells” value in assay [2] (unsorted, FGF8+, Day 10 after reseeding) was “these cell masses were observed to decrease”. The “Rx::Venus positive rate (FACS)” value in assay [3] (group supplemented with FGF8, Day 41 after reseeding) is given as no less than 95%. Further, the “black RPE in sheet” value in assay [3] (sheets supplemented with FGF8) is on record as “hardly observed”. Also, the “distribution of Rx::Venus-positive cells in sheet” value in assay [3] (sorted then supplemented with FGF8, 40 days after reseeding) is “Rx::Venus-positive cells were uniformly present in the whole wells”. In addition, in assay [3] (setting [7]), the “percentage of Chx10-positive and Sox2-positive neural retinal progenitor cells or Crx-positive photoreceptor progenitor cells” value is recorded as “equivalent as compared with neural retinal tissue”; the “percentage of Rx::Venus-positive and Ki67-positive proliferative retinal cells” value is given as “tended to be large as compared with neural retinal tissue”. Further, in assay [4], the “distribution of Crx::Venus cell populations in sheet” value is listed as “uniformly present”.

B2: FGF4: fibroblast growth factor, FGF signaling pathway agonist (protein, UniProt P08620 31-206, looked up)
Fibroblast growth factor 4: APTAPNGTLEAELERRWESLVALSLARLPVAAQPKEAAVQSGAGDYLLGIKRLRRLYCNVGIGFHLQALPDGRIGGAHADTRDSLLELSPVERGVVSIFGVASRFFVAMSSKGKLYGSPFFTDECTFKEILLPNNYNAYESYKYPGMFIALSKNGKTKKGNRVSPTMKVTHFLPRL
In the case of B2, in assay [1], the “expression intensity of Rx::Venus” value was “high expression intensity of Rx::Venus”.

B3: BMP4: exogenous human recombinant BMP4, BMP signaling pathway agonist (protein, UniProt P12644 293-408, looked up)
Bone morphogenetic protein 4: SPKHHSQRARKKNKNCRRHSLYVDFSDVGWNDWIVAPPGYQAFYCHGDCPFPLADHLNSTNHAIVQTLVNSVNSSIPKACCVPTELSAISMLYLDEYDKVVLKNYQEMVVEGCGCR
Regarding B3, the FoxG1 staining result in assay [5] is listed as “FoxG1 was negative”. For the same molecule, in assay [5] (Day 26), the “differentiated tissue (Rx::Venus)” value is recorded as “Rx::Venus-positive retinal tissue was observed to be differentiated”.
